Test [1] has as its target T1, HLA-A*0201 (recombinant HLA-A*0201 heavy chain with human beta-2 microglobulin) (human). Nature of the test: EpI ELISA: refolding of recombinant HLA-A*0201 with b2m and graded peptide. (In general: In an ELISA, binding on a coated surface is turned into a signal by an enzyme label.)
The target of test [2] is T1, HLA-A*0201 (recombinant HLA-A*0201 …). Nature of the test: ELISA-based refolding assay: recombinant HLA-A*0201, b2m and graded peptide.

Ends that are not written are not given here.

As to ALFVRLLALA (also called IMA-TGFBI-001) [TGFBI-001], the “fold lower KD compared with the majority of peptides” value in test [1] was determined as 100 fold.
Regarding KLTDIQIEL [JAK-001], the binding result in test [2] is recorded as “binds”.
With KLGDFGLATVV [DCA-001], the binding result in test [2] was “binds”.
Turning to KLMDLDVEQL (also called IMA-PCN-001) [PCN-001], the binding result in test [1] is listed as “binds”.
In the case of ILAPVILYI (also called IMA-NOX-001) [NOX-001], the binding result in test [1] is “binds”.
On to ALSNLEVTL (also: acetate salt, also called IMA-C20-001) [C20-001], for which the binding result in test [1] was “binds”.
The same measure, in the same setting: the value for KIFDEILVNA (also called IMA-TOP-001) [TOP-001] was “binds”.

(Values after US20160051654A1 (IMMATICS BIOTECHNOLOGIES, published 2016).)
